This note sets out measurements from FireProtDB (doi:10.1016/j.bpc.2008.09.020).

B1: Cytochrome c-551, P00099 (parent)
chain: MKPYALLSLLATGTLLAQGAWAEDPEVLFKNKGCVACHAIDTKMVGPAYKDVAAKFAGQAGAEAELAQRIKNGSQGVWGPIPMPPNAVSDDEAQTLAKWVLSQK

Variants of B1 are the subject of the data set. The settings on record: Pseudomonas aeruginosa (strain ATCC 15692 / DSM 22644 / CIP 104116 / JCM 14847 / LMG 12228 / 1C / PRS 101 / PAO1), 25 °C, GdnHCl, CD, Sodium acetate 20 mM, structure 451C, whole UniProt chain shown.

Turning to MKPYALLSLLATGTLLAQGAWAEDPEVLAKNKGCMACHAIDTKMVGPAYKDVAAKYAGQAGAEAYLAQRIKNGSQGVWGPIPMPPNAVSDDEAQTLAKWVLSQK [F29A V35M F56Y E65Y], where the note is “pH 3.6”, the “ddG of mutation (higher = less stable)” value is -2.39 kcal/mol, the denaturant m value was 2.52 kcal/mol/M, the “denaturant midpoint (higher = more stable)” value (“denaturant midpoint” below) turned out to be 2.59 M and the unfolding free energy turned out to be 6.52 kcal/mol. For the same variant, for the setting “pH 5”, the “ddG of mutation (higher = less stable)” value was -3.76 kcal/mol, the denaturant m value came to 2.43 kcal/mol/M, the “denaturant midpoint” value was determined as 3.78 M and the unfolding free energy came out at 9.21 kcal/mol.
Take MKPYALLSLLATGTLLAQGAWAEDPEVLFKNKGCVACHAIDTKMVGPAYKDVAAKFAGQAGAEAELAQRIKNGSQGVWGPIPMPPNAVSDDEAQTLAKWILSQK [V100I]: where the note is “pH 3.6”, the “ddG of mutation (higher = less stable)” value was -1.05 kcal/mol, the denaturant m value stood at 2.74 kcal/mol/M, the “denaturant midpoint” value turned out to be 1.89 M and the unfolding free energy came to 5.18 kcal/mol. In addition, where the note is “pH 5”, the “ddG of mutation (higher = less stable)” value is -1.49 kcal/mol, the denaturant m value amounted to 2.74 kcal/mol/M, the “denaturant midpoint” value is 2.53 M and the unfolding free energy was 6.93 kcal/mol.
MKPYALLSLLATGTLLAQGAWAEDPEVLFKNKGCVACHAIDTKMVGPAYKDVAAKYAGQAGAEAYLAQRIKNGSQGVWGPIPMPPNAVSDDEAQTLAKWVLSQK [F56Y E65Y]: for the setting “pH 3.6”, the “ddG of mutation (higher = less stable)” value was -0.72 kcal/mol, the denaturant m value was 2.7 kcal/mol/M, the “denaturant midpoint” value amounted to 1.8 M and the unfolding free energy was 4.85 kcal/mol. Besides, for the setting “pH 5”, the “ddG of mutation (higher = less stable)” value is -2.27 kcal/mol, the denaturant m value stood at 2.68 kcal/mol/M, the “denaturant midpoint” value amounted to 2.88 M and the unfolding free energy was found to be 7.71 kcal/mol.
For MKPYALLSLLATGTLLAQGAWAEDPEVLAKNKGCMACHAIDTKMVGPAYKDVAAKFAGQAGAEAELAQRIKNGSQGVWGPIPMPPNAVSDDEAQTLAKWVLSQK [F29A V35M], where the note is “pH 3.6”, the “ddG of mutation (higher = less stable)” value was -1.45 kcal/mol, the denaturant m value was 2.56 kcal/mol/M, the “denaturant midpoint” value stood at 2.18 M and the unfolding free energy is 5.58 kcal/mol. Under “pH 5”, the “ddG of mutation (higher = less stable)” value is -1.92 kcal/mol, the denaturant m value was 2.57 kcal/mol/M, the “denaturant midpoint” value amounted to 2.87 M and the unfolding free energy stood at 7.37 kcal/mol.
Turning to MKPYALLSLLATGTLLAQGAWAEDPEVLAKNKGCMACHAIDTKMVGPAYKDVAAKYAGQAGAEAYLAQRIKNGSQGVWGPIPMPPNAVSDDEAQTLAKWILSQK [F29A V35M F56Y E65Y V100I], for the setting “pH 3.6”, the “ddG of mutation (higher = less stable)” value was -3.34 kcal/mol, the denaturant m value was 2.54 kcal/mol/M, the “denaturant midpoint” value was found to be 2.95 M and the unfolding free energy turned out to be 7.48 kcal/mol. In addition, under “pH 5”, the “ddG of mutation (higher = less stable)” value was -4.78 kcal/mol, the denaturant m value worked out at 2.44 kcal/mol/M, the “denaturant midpoint” value was 4.2 M and the unfolding free energy stood at 10.2 kcal/mol.
In the case of MKPYALLSLLATGTLLAQGAWAEDPEVLFKNKGCVACHAIDTKMVGPAYKDVAAKFAGQAGAEAYLAQRIKNGSQGVWGPIPMPPNAVSDDEAQTLAKWVLSQK [E65Y], where the note is “pH 3.6”, the “ddG of mutation (higher = less stable)” value is -0.09 kcal/mol, the denaturant m value was found to be 2.88 kcal/mol/M, the “denaturant midpoint” value is 1.46 M and the unfolding free energy was found to be 4.23 kcal/mol. Further, under “pH 5”, the “ddG of mutation (higher = less stable)” value was -1.13 kcal/mol, the denaturant m value is 3.1 kcal/mol/M, the “denaturant midpoint” value is 2.12 M and the unfolding free energy was 6.57 kcal/mol.
Regarding MKPYALLSLLATGTLLAQGAWAEDPEVLFKNKGCVACHAIDTKMVGPAYKDVAAKYAGQAGAEAELAQRIKNGSQGVWGPIPMPPNAVSDDEAQTLAKWVLSQK [F56Y], under “pH 3.6”, the “ddG of mutation (higher = less stable)” value is -0.28 kcal/mol, the denaturant m value amounted to 2.76 kcal/mol/M, the “denaturant midpoint” value came to 1.6 M and the unfolding free energy turned out to be 4.41 kcal/mol. For the same variant, for the setting “pH 5”, the “ddG of mutation (higher = less stable)” value is -1.33 kcal/mol, the denaturant m value was 2.67 kcal/mol/M, the “denaturant midpoint” value was found to be 2.54 M and the unfolding free energy turned out to be 6.78 kcal/mol.
As to MKPYALLSLLATGTLLAQGAWAEDPEVLFKNKGCVACHAIDTKMVGPAYKDVAAKYAGQAGAEAYLAQRIKNGSQGVWGPIPMPPNAVSDDEAQTLAKWILSQK [F56Y E65Y V100I], where the note is “pH 3.6”, the “ddG of mutation (higher = less stable)” value was -1.63 kcal/mol, the denaturant m value was 2.57 kcal/mol/M, the “denaturant midpoint” value amounted to 2.25 M and the unfolding free energy is 5.77 kcal/mol. For the setting “pH 5”, the “ddG of mutation (higher = less stable)” value was -2.95 kcal/mol, the denaturant m value worked out at 2.44 kcal/mol/M, the “denaturant midpoint” value was determined as 3.44 M and the unfolding free energy was 8.39 kcal/mol.
Consider MKPYALLSLLATGTLLAQGAWAEDPEVLAKNKGCMACHAIDTKMVGPAYKDVAAKFAGQAGAEAELAQRIKNGSQGVWGPIPMPPNAVSDDEAQTLAKWILSQK [F29A V35M V100I], for which, where the note is “pH 3.6”, the “ddG of mutation (higher = less stable)” value is -1.9 kcal/mol, the denaturant m value was 2.45 kcal/mol/M, the “denaturant midpoint” value was 2.46 M and the unfolding free energy came to 6.04 kcal/mol. In addition, where the note is “pH 5”, the “ddG of mutation (higher = less stable)” value is -2.29 kcal/mol, the denaturant m value stood at 2.47 kcal/mol/M, the “denaturant midpoint” value stood at 3.13 M and the unfolding free energy worked out at 7.74 kcal/mol.
